Experimental data from the Human Domainome abundance scans (Beltran et al. 2025).

B1: Ankyrin-2, residues 3571 to 3650; numbered along this chain, Q01484 (parent)
chain: ERLAYIADHLGFSWTELARELDFTEEQIHQIRIENPNSLQDQSHALLKYWLERDGKHATDTNLVECLTKINRMDIVHLME

Variants of: B1
Assay: abundance fitness (aPCA) (normalised: wild type 0, dead -1); higher = more abundant; growth selection in yeast, the domain comes from the species named
Settings: Homo sapiens

Abundance fitness: each site, then its substitutions
E16: N 0.026, S -0.028, I 0.061, W -0.297, M -0.056, G -0.065, Q 0.202, T 0.038, F -0.09, L 0.032, H 0.028, D 0.053, P -0.233, V -0.104, R 0.026, A -0.037
H29: Y -0.294, M -0.133, K -0.004, F 0.062, S -0.041, A -0.013, Q -0.025, G 0.027, I -0.082, V 0.035, L -0.006, N -0.108, P -0.961, T -0.005, R -0.111, W -0.137, D -0.079, E -0.041, C -0.07
E34: R 0.018, H -0.048, K -0.045, L -0.054, Q 0.085, C -0.413, N -0.048, D -0.129, F -0.25, S -0.018, I -0.042, P -0.678, G -0.058, T -0.049, A -0.048
E25: D 0.016, S -0.038, Q -0.01, R -0.096, N 0.108, K 0.15, Y -0.122, F -0.199, V -0.064, M -0.113, C -0.22, A -0.006, L -0.062, I 0.009, T -0.065, H -0.072, G -0.074, P 0.021
L17: E -1.05, V -0.096, A -0.134, T -0.235, M -0.119, C -0.035, R -1.23, H -0.91, G -1.04, S -1.03, F 0.08, Y -0.478, W -0.692, I -0.024, P -1.17, N -1.15
A18: W -0.859, S -0.196, D -0.514, V -0.687, F -1.07, M -0.519, L -1.03, T -0.903, G -0.128, P -1.17, R -1.37
E20: Y -0.1, T -0.025, A -0.118, C -0.156, D 0.018, P -0.814, W -0.156, Q -0.169, L -0.083, F -0.098, V -0.003, R -0.057, M 0.089, G -0.095, S -0.076
W14: V -0.283, Y -0.31, S -0.812
T15: Y -0.433, L 0.036, C -0.062, F -0.277, W -0.058, P 0.01, K 0.079, E -0.185, V -0.009, G -0.042, Q -0.083, S 0.018, R -0.057, H -0.309, A -0.02, N -0.038, D -0.195, M -0.21
I28: M -0.064, H -0.668, E -0.171, N -0.301, K -0.633, R -0.22, A -0.215, P -0.833, T -0.1, D -0.895, G -0.634, S -0.203, L -0.05, F -0.792, Q -0.179, V -0.056, Y -0.225
R32: P -0.293, S -0.059, G -0.05, Q 0.081, L -0.034, A -0.096, M -0.065, Y -0.384, I -0.339, K 0.177, N -0.206, H 0.034, D -0.073, W -0.25, F -0.088, T -0.127, E 0.058, C -0.074
T24: V -0.248, R -0.027, I -0.154, C -0.193, G -0.014, E -0.02, Q 0.025, K 0.162, N -0.005, L -0.144, P -0.138, D 0.064, Y 0.053, S -0.025, F -0.053, A -0.053, H -0.075, W -0.409
F23: E -1.17, H -0.663, A -0.177, C -0.184, P -1.07, T -0.211, M -0.021, L -0.066, S -0.575, Q -0.912, I 0.047, R -1.05, V -0.174, G -1.17, W -0.442, K -0.983
L21: I -0.268, N -0.149, A -0.086, T -0.412, C -0.488, V -0.225, E -0.849, M -0.107, F 0.069, S -0.33, W -0.093, G -0.072, K -0.32, Q -0.24
R19: N 0.015, A -0.076, Y -0.396, H 0.028, K 0.077, S -0.101, C -0.089, D -0.006, G -0.004, E 0.101, F -0.195, Q 0.046, I 0.049, W 0.001, P -0.208, L -0.025, M 0.083
E26: Q -0.129, R -0.068, H 0.039, P -0.086, S -0.091, F -0.282, N -0.033, A -0.087, K 0.035, Y -0.118, I -0.045, D -0.053, T -0.027, L -0.057, G -0.059, C -0.209, M -0.041, W -0.105
D22: Y -0.158, E -0.217, G -0.075, Q 0.017, S 0.012, C -0.167, T -0.048, I -0.14, N -0.111, K -0.051, A -0.05, W -0.223, V -0.206, M -0.075, H -0.017, F -0.039
Q27: H 0.101, S 0.006, Y -0.236, E 0.007, K 0.051, I -0.039, V -0.042, A -0.116, N 0.08, G -0.144, M -0.006, L -0.039, P -0.675, T 0.1, R -0.09
I31: E -0.791, Q -0.743, P -1.19, G -0.936, W -0.336, F 0.023, H -0.707, R -1.04, N -0.242, S -0.772, Y -0.42, C 0.027, L -0.06, D -1, A -0.545, V -0.057, M -0.177, T -0.157
Q30: D -0.183, T -0.023, W -0.209, K -0.112, A -0.082, C -0.044, N -0.128, L -0.052, I -0.076, S -0.081, M 0.008, R 0, F -0.023, V -0.073, E 0.005, H -0.045, P -0.825, G -0.079
I33: D -0.105, L -0.087, P -0.912, W -0.073, Q 0.003, M 0.011, K 0.058, V -0.04, C -0.002, N -0.223, A -0.034, Y -0.027, G -0.047, E 0.039, F -0.019, R 0.011, H -0.096, T -0.022
